Measured values published in PMC7644011.

Tested on: rituximab (MabThera, anti-CD20 chimeric mouse/human IgG1) (chimeric mouse/human)
Assay: ELASA
Details: 80°C 1 min; ELASA on protein A plates, antibody 4 ug/ml; aptamers folded in 20 mM Tris pH 7.6, 100 mM NaCl, 2 mM MgCl2, 5 mM KCl, 1 mM CaCl2, 0.02% Tween 20, then diluted …

Sequence	Kd
GGCCATTGTGGACTTCTTTGGGTAATTCAGGGGCTCGATT [C7]	8.8 nM
ACTTCGGCTAGTTAGGGGGTAGTTTAGATCGTCTCTACAT [C10]	17.6 nM
